In paper PMC2814945 (Peptides, 2009):

T1: HA-tagged human Neuropeptide S receptor, N107 variant (human, UniProt Q6W5P4 1-371)
T1 sequence (looked up): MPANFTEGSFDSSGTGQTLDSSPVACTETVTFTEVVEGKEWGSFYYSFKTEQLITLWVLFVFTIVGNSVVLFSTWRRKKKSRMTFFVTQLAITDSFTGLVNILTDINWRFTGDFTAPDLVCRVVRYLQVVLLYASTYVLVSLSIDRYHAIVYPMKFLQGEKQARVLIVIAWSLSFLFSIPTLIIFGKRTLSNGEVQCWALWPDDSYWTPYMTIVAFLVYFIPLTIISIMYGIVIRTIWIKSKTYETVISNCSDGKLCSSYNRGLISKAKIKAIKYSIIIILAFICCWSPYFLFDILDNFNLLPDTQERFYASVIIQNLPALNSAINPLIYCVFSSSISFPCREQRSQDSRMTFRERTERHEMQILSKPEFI

T2: HA-tagged human Neuropeptide S receptor, D105A mutant in the N107 background (human, UniProt Q6W5P4 1-371, D105A)
T2 sequence (looked up): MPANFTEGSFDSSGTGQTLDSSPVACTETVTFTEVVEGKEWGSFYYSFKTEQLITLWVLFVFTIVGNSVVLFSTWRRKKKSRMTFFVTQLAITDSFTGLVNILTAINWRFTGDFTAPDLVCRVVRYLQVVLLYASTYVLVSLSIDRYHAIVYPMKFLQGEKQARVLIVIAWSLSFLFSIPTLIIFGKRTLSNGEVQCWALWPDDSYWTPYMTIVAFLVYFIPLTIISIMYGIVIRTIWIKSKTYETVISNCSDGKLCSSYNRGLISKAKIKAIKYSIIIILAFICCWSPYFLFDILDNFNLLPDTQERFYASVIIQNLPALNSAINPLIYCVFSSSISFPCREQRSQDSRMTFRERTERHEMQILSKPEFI

T3: HA-tagged human Neuropeptide S receptor, I107 variant (human, UniProt Q6W5P4 1-371, N107I)
T3 sequence (looked up): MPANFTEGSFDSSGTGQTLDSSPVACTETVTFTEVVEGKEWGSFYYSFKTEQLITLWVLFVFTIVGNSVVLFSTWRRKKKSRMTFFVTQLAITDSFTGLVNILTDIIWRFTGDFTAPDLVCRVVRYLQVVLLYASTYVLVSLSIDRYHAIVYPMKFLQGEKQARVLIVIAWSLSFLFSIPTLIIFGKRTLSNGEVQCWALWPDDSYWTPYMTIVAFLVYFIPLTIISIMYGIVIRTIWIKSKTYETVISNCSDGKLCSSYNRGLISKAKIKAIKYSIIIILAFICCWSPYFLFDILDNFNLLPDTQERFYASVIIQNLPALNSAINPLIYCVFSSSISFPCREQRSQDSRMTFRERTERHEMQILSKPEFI

T4: HA-tagged human Neuropeptide S receptor, N101A mutant in the N107 background (human, UniProt Q6W5P4 1-371, N101A)
T4 sequence (looked up): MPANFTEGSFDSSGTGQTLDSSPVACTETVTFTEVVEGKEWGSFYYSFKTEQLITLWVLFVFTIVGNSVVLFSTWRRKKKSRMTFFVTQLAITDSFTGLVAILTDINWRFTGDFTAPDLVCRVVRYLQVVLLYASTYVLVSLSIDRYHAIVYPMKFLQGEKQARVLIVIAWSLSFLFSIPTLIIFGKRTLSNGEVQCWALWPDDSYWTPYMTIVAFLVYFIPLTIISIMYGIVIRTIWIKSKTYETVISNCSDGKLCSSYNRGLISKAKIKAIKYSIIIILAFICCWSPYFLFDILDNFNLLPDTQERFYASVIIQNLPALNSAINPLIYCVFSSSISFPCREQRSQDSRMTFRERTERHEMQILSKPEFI


Tests used:
[1] = target: HA-tagged human Neuropeptide S receptor, D105A mutant in the N107 background (human) (UniProt Q6W5P4)
[2] = target: T1, HA-tagged human Neuropeptide S …; experiment: cell-based or functional assay
[3] = target: T2, HA-tagged human Neuropeptide S …; experiment: cell-based or functional assay
[4] = target: T3, HA-tagged human Neuropeptide S …; experiment: cell-based or functional assay
[5] = target: T4, HA-tagged human Neuropeptide S …; experiment: cell-based or functional assay
[6] = target: T1, HA-tagged human Neuropeptide S …; experiment: radioligand binding
[7] = target: T2, HA-tagged human Neuropeptide S …; experiment: radioligand binding

EC50 of receptor activation by human NPS 1-18 (unpublished data) [1] [nM]	EC50 of NPS-mediated mobilisation of intracellular Ca2+ (FLIPR), stable clone #2 [2] [nM]	EC50 of NPS-mediated mobilisation of intracellular Ca2+ (FLIPR), stable clone #4 [2] [nM]	EC50 of receptor activation by human NPS 1-20 (unpublished data) [3] [nM]	EC50 of NPS-mediated mobilisation of intracellular Ca2+ (FLIPR), stable clone #4 [4] [nM]	EC50 of NPS-mediated mobilisation of intracellular Ca2+ (FLIPR), stable clone #5 [4] [nM]	EC50 of NPS-mediated mobilisation of intracellular Ca2+ (FLIPR), stable clone #2 [5] [nM]	EC50 of NPS-mediated mobilisation of intracellular Ca2+ (FLIPR), stable clone #6 [5] [nM]	IC50 [6] [nM]	IC50 [7] [nM]	Molecule
1000										human NPS 1-18 (peptide)
	25	4.9	~1000	1.6	1.7	12	42	8.7 ± 1.9	> 200	SFRNGVGTGMKKTSFQRAKS (peptide, UniProt P0C0P6 70-89, looked up) [Neuropeptide S (human)]
